“And” between values parts separate entries of the source, which are not always exact repeats. Equal entries are not always repeated.

For data set [1], the target named is T1, recombinant soluble RANKL (sRANKL) (UniProt O35235 139-316).
T1 chain: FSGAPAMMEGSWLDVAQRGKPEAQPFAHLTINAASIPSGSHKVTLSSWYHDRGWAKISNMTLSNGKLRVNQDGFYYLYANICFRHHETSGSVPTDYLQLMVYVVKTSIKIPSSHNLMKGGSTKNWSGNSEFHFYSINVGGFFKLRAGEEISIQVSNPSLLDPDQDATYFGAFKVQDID
The data set is described as follows: ELISA. (In an ELISA, binding on a coated surface is turned into a signal by an enzyme label.)

Data set [2] deals with the molecule itself. Description: SEC; Superdex 200, 25 mM HEPES pH 7.1, 150 mM NaCl; peak fractions from the heparin Sepharose column; ferritin (440 kDa) and IgG (150 kDa) as markers. A general note: Size exclusion chromatography separates by hydrodynamic size, large species first.

B1: wildtype human osteoprotegerin (WT OPG) (receptor, UniProt O00300 22-401, looked up)
chain: ETFPPKYLHYDEETSHQLLCDKCPPGTYLKQHCTAKWKTVCAPCPDHYYTDSWHTSDECLYCSPVCKELQYVKQECNRTHNRVCECKEGRYLEIEFCLKHRSCPPGFGVVQAGTPERNTVCKRCPDGFFSNETSSKAPCRKHTNCSVFGLLLTQKGNATHDNICSGNSESTQKCGIDVTLCEEAFFRFAVPTKFTPNWLSVLVDNLPGTKVNAESVERIKRQHSSQEQTFQLLKLWKHQNKDQDIVKKIIQDIDLCENSVQRHIGHANLTFEQLRSLMESLPGKKVGAEDIEKTIKACKPSDQILKLLSLWRIKNGDQDTLKGLMHALKHSKTYHFPKTVTQSLKKTIRFLHSFTMYKLYQKLFLEMIGNQVQSVKISCL
notes: Osteoprotegerin (OPG, TNFRSF11B), human; complete open reading frame of full-length human OPG in pcDNA3.4-TOPO; stop codon at position 402; Disulfide-linked dimer; assays used the SEC-purified dimer; also called WT hOPG; hOPG; source: 293-freestyle cells, transiently transfected; purified from medium (heparin Sepharose, Superdex 200)
What is called Kd is the equilibrium constant for the complex coming apart. The term stoichiometry N denotes the number of molecules, sites or subunits per partner or assembly. Take B1: the Kd in data set [1] was found to be 4.8 nM. Moreover, in data set [2], the “stoichiometry N” value was 2.

B2: human osteoprotegerin Stop402Leu mutant with a 19-residue C-terminal appendage (OPG^+19) (receptor)
chain: ETFPPKYLHYDEETSHQLLCDKCPPGTYLKQHCTAKWKTVCAPCPDHYYTDSWHTSDECLYCSPVCKELQYVKQECNRTHNRVCECKEGRYLEIEFCLKHRSCPPGFGVVQAGTPERNTVCKRCPDGFFSNETSSKAPCRKHTNCSVFGLLLTQKGNATHDNICSGNSESTQKCGIDVTLCEEAFFRFAVPTKFTPNWLSVLVDNLPGTKVNAESVERIKRQHSSQEQTFQLLKLWKHQNKDQDIVKKIIQDIDLCENSVQRHIGHANLTFEQLRSLMESLPGKKVGAEDIEKTIKACKPSDQILKLLSLWRIKNGDQDTLKGLMHALKHSKTYHFPKTVTQSLKKTIRFLHSFTMYKLYQKLFLEMIGNQVQSVKISCLLLEMAIELFPHNWRDPMDE
notes: Osteoprotegerin (OPG, TNFRSF11B), human; complete open reading frame, residues up to 401, followed by the read-through appendage; 19-residue appendage 402-420 made by read-through of the mutated stop codon (Stop402Leu); Secreted; Mixture of higher-order oligomers; also called mutant hOPG; mutant OPG; source: 293-freestyle cells, transiently transfected; purified from medium (heparin Sepharose, …)
Regarding B2, in data set [1], the Kd is 4.65 nM. The “stoichiometry N” value in data set [2] was 12 and 6 and 4.
